Biological target: plasminogen

B1: rat single-chain tPA with arginine to serine point mutation at position 276 (R276S), 6xHis-tagged (protein)
chain: HHHHHHSYRATCRDEQTQTTYQQHQSWLRPMLRGNRVEYCRCNSGLAQCHSVPVRSCSEPRCFNGGTCQQALYFSDFVCQCPDGFVGKRCDIDTRATCFEGQGITYRGTWSTAENGAECINWNSSALSQKPYSARRPNAIKLGLGNHNYCRNPDRDVRPWCYVFKAGKYTTEFCSTPACPKGPTEDCYVGKGVTYRGTHSFTTSKASCLPWNSMILIGKTYTAWRANSQALGLGRHNYCRNPDGDAKPWCHVMKDRKLTWEYCDMSPCSTCGLRQYKQPLFSIKGGLFTDITSHPWQAAIFVKNKRSPGERFLCGGVLISSCWVLSAAHCFVERFPPHHLKVVLGRTYRVVPGEEEQTFEIEKYIVHKEFDDDTYDNDIALLQLRSDSSQCAQESSSVGTACLPDPDVQLPDWTECELSGYGKHEASSPFFSDRLKEAHVRLYPSSRCTSQHLFNKTITSNMLCAGDTRTGGNQDVHDACQGDSGGPLVCMIDKRMTLLGIISWGLGCGQKDVPGIYTKVTNYLNWIQDNMKQ
conversion of plasminogen into plasmin (fibrin agarose zymography; PPP-clot lysis): Whereas sc*-tPA is not able to promote alone the conversion of plasminogen into plasmin, its fibrin cofactor partially brings back its plasminogen activation function

Reference: patent publication US20140212406
